According to the Immune Epitope Database (IEDB):

Key:
[1] = molecular target: HLA-A*02:16; assay: IEDB peptide-MHC binding, purified MHC/direct/fluorescence; filed as Kd, often an IC50 or EC50 that approximates it; ≥ and ≤ were set here for values at or beyond the usual limits of such assays
[2] = molecular target: HLA-A*03:01; assay: as above
[3] = molecular target: HLA-A*02:19; assay: as above
[4] = molecular target: HLA-A*02:11; assay: as above
[5] = molecular target: HLA-A*23:01; assay: as above
[6] = molecular target: HLA-A*68:02; assay: as above
[7] = molecular target: HLA-A*02:03; assay: as above
[8] = molecular target: HLA-A*29:02; assay: as above
[9] = molecular target: HLA-A*24:03; assay: as above
[10] = molecular target: HLA-A*02:12; assay: as above
[11] = molecular target: HLA-B*18:01; assay: IEDB peptide-MHC binding, purified MHC/competitive/fluorescence; filed as Kd, often an IC50 or EC50 that approximates it; ≥ and ≤ were set here for values at or beyond the usual limits of such assays
[12] = molecular target: HLA-A*02:01; assay: as above
[13] = molecular target: HLA-B*51:01; assay: as above
[14] = molecular target: HLA-B*15:01; assay: as above
[15] = molecular target: HLA-B*57:01; assay: as above
[16] = molecular target: HLA-B*39:01; assay: as above
[17] = molecular target: HLA-A*26:01; assay: as above
[18] = molecular target: HLA-A*69:01; assay: as above
[19] = molecular target: HLA-A*31:01; assay: as above
[20] = molecular target: HLA-B*15:17; assay: as above; settings: source organism: Reston ebolavirus
[21] = molecular target: HLA-B*27:03; assay: as above
[22] = molecular target: HLA-B*46:01; assay: as above
[23] = molecular target: HLA-B*15:03; assay: IEDB peptide-MHC binding, purified MHC/competitive/radioactivity; filed as Kd, often an IC50 or EC50 that approximates it; ≥ and ≤ were set here for values at or beyond the usual limits of such assays
[24] = molecular target: HLA-B*15:01; assay: as above
[25] = molecular target: HLA-B*08:01; assay: as above
[26] = molecular target: HLA-A*30:01; assay: as above
[27] = molecular target: HLA-A*32:01; assay: as above
[28] = molecular target: HLA-A*11:01; assay: IEDB peptide-MHC binding, purified MHC/direct/fluorescence; filed as Kd, often an IC50 or EC50 that approximates it; ≥ and ≤ were set here for values at or beyond the usual limits of such assays
[29] = molecular target: HLA-A*03:01; assay: IEDB peptide-MHC binding, purified MHC/competitive/fluorescence; filed as Kd, often an IC50 or EC50 that approximates it; ≥ and ≤ were set here for values at or beyond the usual limits of such assays
[30] = molecular target: HLA-A*01:01; assay: IEDB peptide-MHC binding, purified MHC/direct/fluorescence; filed as Kd, often an IC50 or EC50 that approximates it; ≥ and ≤ were set here for values at or beyond the usual limits of such assays; settings: source organism: Reston ebolavirus
[31] = source organism: Reston ebolavirus
[32] = source organism: Vaccinia virus Copenhagen
[33] = source organism: Vaccinia virus WR
[34] = source organism: Burkholderia mallei
[35] = source organism: Entamoeba histolytica HM-1:IMSS
[36] = source organism: Listeria welshimeri serovar 6b str. SLCC5334
[37] = source organism: Escherichia coli 536
[38] = source organism: Zaire ebolavirus

RTYSLLNRK showed a Kd [1, 31] of no less than 20000 nM, a Kd ([2]; source organism: Reston ebolavirus - Reston) of 144 nM and a Kd [3, 31] of no less than 20000 nM. The Kd [4, 31] was no less than 20000 nM, the Kd [5, 31] was no less than 20000 nM and the Kd [6, 31] was no less than 20000 nM. The Kd [7, 31] was no less than 20000 nM, the Kd [8, 31] was no less than 20000 nM and the Kd [9, 31] was no less than 20000 nM. The Kd [10, 31] was no less than 20000 nM, the Kd [11, 31] was no less than 20000 nM and the Kd [12, 31] was no less than 20000 nM. For the same sequence, the Kd [13, 31] was no less than 20000 nM, the Kd [14, 31] was no less than 20000 nM and the Kd [15, 31] was no less than 20000 nM. For the same sequence, the Kd [16, 31] was no less than 20000 nM, the Kd [17, 31] was no less than 20000 nM and the Kd [18, 31] was no less than 20000 nM. The Kd [19, 31] was 15.5 nM, the Kd [20] was no less than 20000 nM and the Kd [21, 31] was no less than 20000 nM. The Kd [22, 31] was no less than 20000 nM.

In the case of LLSLEIVFF, the Kd [23, 32] is reported as 2110 nM and the Kd [24, 32] is reported as 142 nM.

Work on WSTSFTNIF yielded a Kd [23, 32] of 5.88 nM.

With AILSLNLRI the Kd [23, 33] was 237 nM, the Kd [25, 33] was 1280 nM and the Kd [26, 33] was 155 nM. It also gave a Kd [27, 33] of 151 nM and a Kd [24, 33] of 142 nM.

TGHPWITFK showed a Kd [2, 34] of 945 nM, a Kd [28, 34] of 116 nM and a Kd ([19]; source organism: Cupriavidus metallidurans CH34) of 48.2 nM.

In the case of VLDCRTAFK, the Kd ([28]; source organism: Yellow fever virus 17D) is reported as 109 nM and the Kd ([19]; source organism: Yellow fever virus) is reported as 772 nM.

Sequence ISVLTGSSI has a Kd [23, 32] of 24.9 nM, a Kd [25, 32] of no less than 20600 nM and a Kd [26, 32] of 3220 nM. The Kd [27, 32] was 3910 nM and the Kd [24, 32] was 34.3 nM.

With SKFVYVSVM the Kd [23, 33] was 1.63 nM.

Sequence QYQNEINYL has a Kd [5, 35] of 2 nM and a Kd [9, 35] of 3 nM.

SIRSMSRSI was tested, and the Kd [23, 32] was 10300 nM, the Kd [25, 32] was 77.2 nM and the Kd [26, 32] was 132 nM. The Kd [27, 32] was 1360 nM and the Kd [24, 32] was 362 nM.

For KVGHVGLYR, the Kd [29, 36] was 46 nM and the Kd [19, 36] was 19.6 nM.

For AVIVWLLLR, the Kd [29, 37] was no less than 20000 nM and the Kd [19, 37] was 743 nM.

FLSEPYSYF was tested, and the Kd [23, 33] was 29.3 nM.

With KKYNNDKSF the Kd [23, 33] was 0.0778 nM, the Kd [25, 33] was 3820 nM and the Kd [26, 33] was no less than 20300 nM. The Kd [27, 33] was 11400 nM and the Kd [24, 33] was 6620 nM.

In the case of KVKDLFNTK, the Kd [23, 33] is reported as no less than 22100 nM, the Kd [25, 33] is reported as no less than 42000 nM and the Kd [26, 33] is reported as 37.7 nM. It also gave a Kd [27, 33] of 2480 nM and a Kd [24, 33] of 4460 nM.

Sequence LSDAARLFL has a Kd [1, 38] of no less than 20000 nM, a Kd [2, 38] of no less than 20000 nM and a Kd [3, 38] of no less than 20000 nM. The Kd [30] was 303 nM, the Kd [4, 38] was no less than 20000 nM and the Kd [5, 38] was no less than 20000 nM. It also gave a Kd [6, 38] of no less than 20000 nM, a Kd [7, 38] of no less than 20000 nM and a Kd [8, 38] of no less than 20000 nM. The Kd [9, 38] was no less than 20000 nM, the Kd [10, 38] was no less than 20000 nM and the Kd [11, 38] was no less than 20000 nM. For the same sequence, the Kd [12, 38] was no less than 20000 nM, the Kd [13, 38] was no less than 20000 nM and the Kd [14, 38] was no less than 20000 nM. For the same sequence, the Kd [15, 38] was no less than 20000 nM, the Kd [16, 38] was no less than 20000 nM and the Kd [17, 38] was no less than 20000 nM. It also gave a Kd [18, 38] of no less than 20000 nM, a Kd [21, 38] of no less than 20000 nM and a Kd [22, 38] of no less than 20000 nM.
